Measured values from article PMC12509757.
Numbering of substitutions follows the chain as printed. Names may count otherwise. One block for each binder: values may come before it.

How the values were obtained:
[1] = biological target: microtubules of HEK293T cells (microtubule fraction), P68363;P07437; assay: tubulin/microtubule fractionation of HEK293T lysates (immunoblot); settings: chain shown with the change;
[2] = biological target: microtubules polymerized from pig brain tubulin (pig) (UniProt P02550); assay: co-sedimentation; in vitro; recombinant His GST protein (1 μM in the legends, 2 μM in the methods) with increasing concentrations of microtubules from pig brain tubulin (or BSA instead) in 1X BRB80, 1 mM DTT, 20 μM paclitaxel, 5 min at room temperature; 100,000g, 15 min, 30 °C through 40% glycerol; immunoblot of supernatant and pellet; apparent Kd, one site-specific binding fit
[3] = biological target: microtubules of osteoclasts (polymerized from endogenous tubulin) (mouse (endogenous in RAW264.7-derived osteoclasts)) (UniProt P05213); assay: co-sedimentation; tubulin/microtubule fractionation of Arhgap10 KO #28 osteoclasts expressing doxycycline-induced myc-ARHGAP10 constructs; immunoblot (Fig. S2)
microtubules of osteoclasts (polymerized from endogenous tubulin) (mouse (endogenous in RAW264.7-derived osteoclasts)), sequence (P05213 whole entry, chain 1 of 2): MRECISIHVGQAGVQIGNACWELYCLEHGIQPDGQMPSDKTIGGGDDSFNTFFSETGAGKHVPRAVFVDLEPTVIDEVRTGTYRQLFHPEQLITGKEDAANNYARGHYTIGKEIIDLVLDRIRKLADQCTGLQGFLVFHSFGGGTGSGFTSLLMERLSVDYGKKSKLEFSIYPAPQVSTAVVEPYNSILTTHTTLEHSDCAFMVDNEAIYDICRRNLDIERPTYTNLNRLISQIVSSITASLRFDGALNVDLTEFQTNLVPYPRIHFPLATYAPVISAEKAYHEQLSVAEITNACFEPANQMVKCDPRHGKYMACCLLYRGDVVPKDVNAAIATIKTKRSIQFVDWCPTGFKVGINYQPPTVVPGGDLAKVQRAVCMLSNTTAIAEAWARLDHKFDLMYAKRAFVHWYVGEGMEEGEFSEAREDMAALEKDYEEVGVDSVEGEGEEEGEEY
microtubules of osteoclasts (polymerized from endogenous tubulin) (mouse (endogenous in RAW264.7-derived osteoclasts)), sequence (P99024 whole entry, chain 2 of 2, further chain): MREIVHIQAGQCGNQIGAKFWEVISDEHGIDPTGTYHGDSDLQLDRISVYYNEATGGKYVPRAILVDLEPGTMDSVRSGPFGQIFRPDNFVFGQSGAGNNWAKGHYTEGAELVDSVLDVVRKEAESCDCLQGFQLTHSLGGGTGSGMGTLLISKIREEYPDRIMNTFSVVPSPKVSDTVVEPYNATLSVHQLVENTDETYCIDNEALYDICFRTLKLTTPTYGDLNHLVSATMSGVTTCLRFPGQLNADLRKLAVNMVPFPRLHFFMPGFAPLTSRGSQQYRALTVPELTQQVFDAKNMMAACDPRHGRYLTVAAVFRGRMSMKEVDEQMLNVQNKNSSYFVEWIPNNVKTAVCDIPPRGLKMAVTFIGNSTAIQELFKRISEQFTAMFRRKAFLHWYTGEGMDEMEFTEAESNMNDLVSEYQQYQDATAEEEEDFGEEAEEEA

microtubules of HEK293T cells (microtubule fraction), P68363;P07437, sequence (chain, as listed by the source, chain 1 of 2): as the sequence (P05213 whole entry, chain 1 of 2) above
microtubules of HEK293T cells (microtubule fraction), P68363;P07437, sequence (chain, as listed by the source, chain 2 of 2): as the sequence (P99024 whole entry, chain 2 of 2, further chain) above

response ([1]; parent: 60): 32.7 % in MT
B1: myc-tagged BAR-PH (aa 1-388) of ARHGAP10, WT, A1A4S6 K37E; K41E; K44E (protein)
chain: MGLQPLEFSDCYLDSPWFRERIRAHEAELERTNKFIEELIEDGENLIAATKSLSVAQRKFAHSLRDFKFEFIGDAVTDDERCIDASLREFSNFLKNLEEQREIMALSVTETLIKPLEKFRKEQLGAVKEEKKKFDKETEKNYSLIDKHLNLSAKKKDSHLQEADIQVEQNRQHFYELSLEYVCKLQEIQERKKFEFVEPMLSFFQGMFTFYHQGHELAKDFNHYKMELQINIQNTRNRFEGTRSEVEELMNKIRQNPKDHKRASQFTAEGYLYVQEKRPAPFGSSWVKHYCMYRKAAKKFNMIPFEHRSGGKLGDGEVFFLKECTKRHTDSIDRRFCFDIEAADRPGVSLTMQAFSEEERKQWLEALGGKEALSHSFNTAIIPRPEGN

Kd [2]: 1270 nM
B2: His GST BAR-PH (aa 1-388) of ARHGAP10, WT (domain or fragment)
chain: B1 chain with E37K, E41K, E44K

response ([1]; parent: 59.1): 26 % in MT
B3: myc-tagged full-length human ARHGAP10, WT (HEK293T), A1A4S6 K37E; K41E; K44E (protein)
chain: MGLQPLEFSDCYLDSPWFRERIRAHEAELERTNKFIEELIEDGENLIAATKSLSVAQRKFAHSLRDFKFEFIGDAVTDDERCIDASLREFSNFLKNLEEQREIMALSVTETLIKPLEKFRKEQLGAVKEEKKKFDKETEKNYSLIDKHLNLSAKKKDSHLQEADIQVEQNRQHFYELSLEYVCKLQEIQERKKFEFVEPMLSFFQGMFTFYHQGHELAKDFNHYKMELQINIQNTRNRFEGTRSEVEELMNKIRQNPKDHKRASQFTAEGYLYVQEKRPAPFGSSWVKHYCMYRKAAKKFNMIPFEHRSGGKLGDGEVFFLKECTKRHTDSIDRRFCFDIEAADRPGVSLTMQAFSEEERKQWLEALGGKEALSHSFNTAIIPRPEGNAQLDKMGFTIIRKCISAVETRGINDQGLYRVVGVSSKVQRLLSMLMDVKTCNEVDLENSADWEVKTITSALKQYLRSLPEPLMTYELHGDFIVPAKSGSPESRVNAIHFLVHKLPEKNKEMLDILVKHLTNVSNHSKQNLMTVANLGVVFGPTLMRPQEETVAALMDLKFQNIVVEILIENHEKIFRTPPDTTFPEPTCLSASPPNAPPRQSKRQGQRTKRPVAVYNLCLELEDGDNPYPSKEDTPTSSLDSLSSPSPVTTAVPGPPGPDKNHLLADGGSFGDWASTIPGQTRSSMVQWLNPQSPTTTSSNSAVTPLSPGSSPFPFSPPATVADKPPESIRSRKARAVYPCEAEHSSELSFEIGAIFEDVQTSREPGWLEGTLNGKRGLIPQNYVKLL

percent associated with the microtubule-containing fraction [3]: 50%
B4: myc-tagged full-length ARHGAP10, WT, re-expressed in Arhgap10 KO osteoclasts (natural protein)
chain: B3 chain with E37K, E41K, E44K
